Publication PMC8664833

Target: ZAP-S (short isoform of zinc-finger antiviral protein) (human, UniProt Q7Z2W4-2 1-699)
Test: MST; 5 mM Mg2+
Conditions: protein: recombinant, tags: N-terminal 6xHis-SUMO, label: 3' pCp-Cy5

Sequence of ZAP-S (short isoform of zinc-finger antiviral protein) (Q7Z2W4 other isoform, or with tags, fused parts or gaps): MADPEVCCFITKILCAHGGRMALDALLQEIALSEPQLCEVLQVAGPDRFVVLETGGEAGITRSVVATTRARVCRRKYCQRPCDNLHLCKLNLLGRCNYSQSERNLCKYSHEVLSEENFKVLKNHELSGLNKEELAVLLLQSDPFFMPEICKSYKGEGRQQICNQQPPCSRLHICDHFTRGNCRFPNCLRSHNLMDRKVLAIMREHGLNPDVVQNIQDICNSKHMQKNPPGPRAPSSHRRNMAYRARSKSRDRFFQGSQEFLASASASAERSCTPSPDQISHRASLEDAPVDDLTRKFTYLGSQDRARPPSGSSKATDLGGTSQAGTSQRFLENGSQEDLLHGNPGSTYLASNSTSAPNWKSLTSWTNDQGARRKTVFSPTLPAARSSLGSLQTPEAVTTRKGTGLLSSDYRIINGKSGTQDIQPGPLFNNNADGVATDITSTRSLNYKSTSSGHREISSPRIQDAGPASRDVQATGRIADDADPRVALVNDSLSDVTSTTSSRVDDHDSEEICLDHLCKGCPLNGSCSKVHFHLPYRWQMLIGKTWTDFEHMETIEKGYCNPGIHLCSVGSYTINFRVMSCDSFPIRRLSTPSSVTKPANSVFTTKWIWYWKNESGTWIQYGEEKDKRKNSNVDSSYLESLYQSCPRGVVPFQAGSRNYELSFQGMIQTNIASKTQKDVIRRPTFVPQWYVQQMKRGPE

## UCGUUUUUAAACGGGUUUGCGGUGUAAGUGCAGCCCGUCUUACACCGU (structured_RNA) [dSL2+3 mutant (SL1 only)]
hairpin
  binding result: no binding

B1: dSL3 mutant (structured_RNA)
RNA: UCGUUUUUAAACGGGUUUGCGGUGUAAGUGCAGCCCGUCUUACACCGUAUACAGGGCU
Shorter pseudoknot (predicted)
  Kd: 0.175 ± 0.064 µM

B2: dSL2 mutant (structured_RNA)
RNA: UCGUUUUUAAACGGGUUUGCGGUGUAAGUGCAGCCCGUCUUACACCGUGCGGCACAGGCACUAGUACUGAUGUCGU
Two consecutive stem-loops
  Kd: 0.672 ± 0.164 µM

B3: Compensatory mutant (structured_RNA)
RNA: UCGUUUUUAAACGGGUUUGGGGUGUAAGUGCAGCCCGUCUUACACCCUGGGGCACAGGCACUAGUACUGAUGUCCUAUACAGGGCU
Pseudoknot (predicted)
  Kd: 0.128 ± 0.029 µM
